Reference: article PMC13031426

Target: Complex III (cytochrome bc1 complex) dimer of the ΔQCR6 yeast supercomplex (Saccharomyces cerevisiae) (UniProt P07143)
Assay: cryo-EM structure

Complex III (cytochrome bc1 complex) dimer of the ΔQCR6 yeast supercomplex (from UniProt P07143 62-309)
stoichiometry N: 2
